The record followed here is patent publication US20040053368A1 (published 2004).

The test has as its target T1, bovine serum albumin (BSA, Sigma) (bovine, UniProt P02769 25-607).
T1 construct: Control protein coated on the ELISA plate
Description: ELISA, serum albumin coated at 1 mg/ml, detected with anti-human FNCBD monoclonal antibody. As to the method:
By the enzyme-linked immunosorbent assay (ELISA), binding ability of the FNCBD-bFGF and the FNCBD-EGF to bovine native collagen (I-AC, Koken), bovine atelocollagen (I-PC, Koken), and bovine serum albumin (BSA, Sigma) was evaluated.
First, 1 mg/ml solutions of native collagen, atelocollagen, and serum albumin were respectively dispensed in the wells of a flat-bottom 96-well ELISA plate at 200 μl/well, and the plate was allowed to stand overnight at 4° C.
The wells were washed three times with PBS containing 0.05% Tween 20, and 100 μl of anti-human FNCBD monoclonal antibody (Takara Shuzo) diluted 1:1000 was dispensed in the wells and allowed to stand at room temperature for 1 hour. The wells were washed three times with 0.05% Tween 20/PBS, and 100 μl of peroxidase-labelled anti-mouse immunoglobulin polyclonal antibody (Dako Japan) diluted 1:1000 was dispensed in the wells and allowed to stand at room temperature for 1 hour. After washing the wells 6 times with 0.05% Tween 20/PBS, 0.1M citrate buffer, pH 4.7 containing 1 mg/ml o-phenylenediamine and 0.03% hydrogen peroxide was dispensed in the wells and allowed to stand for 10 minutes. The reaction was then terminated by addition of 50 μl of 4N sulfuric acid and absorption at 492-690 nm was measured.
In general terms: ELISA stands for enzyme-linked immunosorbent assay.

T1 sequence (P02769 25-607 limits assumed): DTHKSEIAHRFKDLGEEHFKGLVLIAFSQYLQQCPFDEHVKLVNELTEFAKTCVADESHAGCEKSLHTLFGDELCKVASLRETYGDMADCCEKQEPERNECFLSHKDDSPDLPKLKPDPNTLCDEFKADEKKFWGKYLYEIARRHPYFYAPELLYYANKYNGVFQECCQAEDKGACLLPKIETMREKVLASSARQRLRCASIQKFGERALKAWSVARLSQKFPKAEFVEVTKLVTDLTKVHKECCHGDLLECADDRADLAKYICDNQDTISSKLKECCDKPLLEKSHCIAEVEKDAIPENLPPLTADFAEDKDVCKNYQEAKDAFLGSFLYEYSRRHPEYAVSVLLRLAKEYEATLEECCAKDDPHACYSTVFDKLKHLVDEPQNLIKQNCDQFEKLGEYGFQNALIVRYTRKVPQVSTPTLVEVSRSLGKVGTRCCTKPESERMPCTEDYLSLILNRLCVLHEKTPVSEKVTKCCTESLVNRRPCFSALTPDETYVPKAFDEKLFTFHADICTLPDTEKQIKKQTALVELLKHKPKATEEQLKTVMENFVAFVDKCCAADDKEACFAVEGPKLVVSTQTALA

B1: human FNCBD/human EGF hybrid polypeptide (FNCBD-EGF) (other)
chain: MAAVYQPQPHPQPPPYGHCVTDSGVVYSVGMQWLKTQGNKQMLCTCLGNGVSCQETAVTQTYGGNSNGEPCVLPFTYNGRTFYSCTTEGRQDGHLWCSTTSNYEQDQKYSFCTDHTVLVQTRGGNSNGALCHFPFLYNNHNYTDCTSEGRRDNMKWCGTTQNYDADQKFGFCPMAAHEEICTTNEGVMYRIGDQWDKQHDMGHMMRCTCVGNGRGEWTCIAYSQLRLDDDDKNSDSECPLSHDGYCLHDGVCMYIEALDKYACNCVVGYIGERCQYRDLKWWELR
notes: also called FN484-EGF; FNCBD/EGF hybrid polypeptide
Consider B1, for which the binding result is reported as “no binding”.
